Data from US20240254227A1 (Alector, published 2024).

T1: human CD300A-Fc (human)
T1 construct: hIgG1-Fc fusion; the entry is the whole fusion chain
T1 chain: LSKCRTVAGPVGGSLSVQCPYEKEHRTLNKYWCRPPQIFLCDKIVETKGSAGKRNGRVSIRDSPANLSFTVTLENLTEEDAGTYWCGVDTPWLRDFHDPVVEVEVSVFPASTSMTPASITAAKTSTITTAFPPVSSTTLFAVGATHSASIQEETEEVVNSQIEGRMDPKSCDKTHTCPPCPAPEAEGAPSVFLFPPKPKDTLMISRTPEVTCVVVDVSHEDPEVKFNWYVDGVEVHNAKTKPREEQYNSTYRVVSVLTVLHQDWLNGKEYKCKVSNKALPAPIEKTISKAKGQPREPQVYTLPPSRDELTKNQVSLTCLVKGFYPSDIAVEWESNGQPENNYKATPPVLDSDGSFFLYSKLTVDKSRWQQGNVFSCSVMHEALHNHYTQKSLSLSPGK

T2: human CD300LB on primary human macrophages (human, UniProt A8K4G0 18-201)
T2 sequence: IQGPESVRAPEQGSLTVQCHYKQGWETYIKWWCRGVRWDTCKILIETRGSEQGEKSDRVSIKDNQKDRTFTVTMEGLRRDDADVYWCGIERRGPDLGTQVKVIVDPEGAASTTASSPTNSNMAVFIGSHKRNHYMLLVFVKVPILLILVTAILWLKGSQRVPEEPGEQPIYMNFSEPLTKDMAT


Legend:
[1] = molecular target: T1, human CD300A-Fc; test: SPR (Carterra LSA), antibody immobilised, Fc fusion at 300 or 600 nM
Experimental: (§1) Binding of mouse anti-CD300LB IgG1 antibodies of the present disclosure to human and murine CD300 orthologs were evaluated by surface plasmon resonance (SPR) using a Carterra LSA instrument (Carterra, Salt Lake City, UT). […] A HC200M sensor chip (Carterra) was activated using the single channel flow cell with a 7-minute injection of a 1:1:1 mixture of 100 mM MES pH 5.5, 100 mM sulfo-NHS, 400 mM EDC (all reconstituted in MES pH 5.5; 100 μL of each mixed in vial immediately before running assay). After switching to the multi-channel array flow cell, the antibodies were injected over the activated chip in a 96-spot array for 10 minutes. The remaining unconjugated active groups on the chip were then blocked by injecting 1M Ethanolamine pH 8.5 (Carterra) for 7 minutes using the single channel flow cell. After priming with running buffer (HBS-TE, Carterra) with 0.5 mg/ml BSA (Sigma), the immobilized anti-CD300LB antibodies were tested for their ability to bind human and mouse recombinant CD300LB extracellular domains. Human CD300 family members and mouse CD300A were hIgG1-Fc fusions, while mouse CD300LB, mouse CD300C, mouse CD300D, and mouse CD300E were mouse IgG2a-Fc fusions (R&D Systems). Binding was assessed by injecting each analyte over the entire antibody array using the single channel flow cell. CD300 analytes were diluted to 300 nM or 600 nM in running buffer and injected in series without regeneration. Two or three buffer blanks were run between each mouse or human ortholog, respectively. Data were processed and analyzed using NextGenKIT high-throughput kinetics analysis software (Carterra).
Results of anti-CD300LB antibody binding to human CD300 family members is provided below in Table 7.

[2] = molecular target: T1, human CD300A-Fc; test: SPR (Carterra LSA), antibody immobilised
Description: In addition to the screening of antibodies for cross-reactivity by FACS analysis, surface plasmon resonance (SPR) analysis was used to determine the binding of antibodies to recombinant huCD300 and muCD300 family members (orthologs) conjugated to an Fc (human CD300A-Fc SEQ ID NO:144; human CD300LB-Fc SEQ ID NO:145; human CD300C-Fc SEQ ID NO: 146; human CD300D-Fc SEQ ID NO: 147; human CD300E-Fc SEQ ID NO: 148; human CD300F-Fc SEQ ID NO: 149; murine CD300A-Fc SEQ ID NO: 150; murine CD300LB-Fc SEQ ID NO:151; murine CD300C-Fc SEQ ID NO: 152; murine CD300D-Fc SEQ ID NO: 153, and murine CD300E-Fc SEQ ID NO: 154).
as §1

[3] = molecular target: T3, huCD300LB-DAP12 fusion constitutively expressed on 293 Freestyle (Freestyle HEK) cells (human); test: flow cytometry, geometric mean (APC-A), FreeStyle HEK cells expressing huCD300LB
T3 construct: also called Human CD300LB-DAP12 chimera
Experimental: Other members of the human CD300 family share sequence homology with human CD300LB. Thus, counter screens against binding of the anti-CD300LB antibodies to huCD300A, huCD300C, huCD300LD, huCD300E, huCD300LF, and huCD300G by stable overexpression in Freestyle HEK cells (generation of which is described above) were performed as follows. Cells were counted and labeled with 200 nM CFSE, 500 nM VioBlue, or a combination of the two to discriminate between CD300LB, Parental cells, and the other CD300 family members. Cells were washed thoroughly with PBS containing 2% fetal bovine serum then resuspended at a total of 240,000 cells per well. Hybridoma supernatants (100 L) or purified antibodies at various concentrations were added and incubated for one hour before the cells were washed twice again and stained with an APC-labeled anti-human or anti-mouse secondary antibody. Cells were then analyzed using a BD FACSCanto II. Anti-CD300LB antibodies were analyzed for specific binding to human CD300LB by FlowJo software by gating on live cells, then the APC geometric mean fluorescence intensity (gMFI) calculated for each labeled population. The results are shown in […]

[4] = molecular target: T2, human CD300LB on primary human …; test: flow cytometry, primary human macrophages donor 1278, 10 ug/mL antibody, isotype control subtracted
Experimental: (§2) Human monocytes from various donors were isolated from whole blood using RosetteSep Human Monocyte Enrichment Cocktail (Stemcell technologies) and Ficoll centrifugation per manufacturer protocols. After lysing red blood cells with ACK lysing buffer, monocytes were resuspended in complete media (RPMI, 10% FBS, Pen/Strep, L-glutamine, HEPES, non-essential amino acid, Sodium pyruvate). To obtain macrophages from these isolated monocytes, 100 ng/ml human M-CSF and 8% v/v human serum were added to the cells for 5-7 days. Cells were counted on the day of the experiment and plated at 100,000 cells per well in a round-bottom 96 well plate. Cells were incubated with TruStain Fc block and 10 μg/mL antibody for 1 hour on ice before washing with 250 μL ice cold PBS twice. Cells were then incubated with the appropriate APC-conjugated secondary antibodies for 20 minutes in the dark on ice. Finally, cells were washed twice with ice cold FACS buffer and then resuspended in 100 μL FACS buffer containing 1% propidium iodide. Samples were immediately analyzed using a BD FACSCanto flow cytometer. The gMFI was calculated using FlowJo software minus the gMFI of the appropriate isotype control.

[5] = molecular target: T2, human CD300LB on primary human …; test: flow cytometry, primary human macrophages donor 1277, 10 ug/mL antibody, isotype control subtracted
Experimental: as §2

Binder	SPR binding (control subtracted) [1]	binding result [2]	binding result [3]	gMFI [4]	gMFI [5]	EC50 (read off the curve) [3]
anti-CD300LB antibody CD-03 (antibody, V domains shown) VH: EVQLQQSGPELVKPGASVKISCKASGYTFTDYYINWVRQSHGKSLECIGDINPNNGGTNYNQKFKGKATLTVDRSSNTAYMEFRSLTFDDSALYYCAAEGAYWGQGTLVTVSA VL: not shown	0.095	no binding (tested: 300 nM or 600 nM)	–	–	–	–
anti-CD300LB antibody CD-02 (antibody, V domains shown) VH: QVQLQQPGAELVRPGSSVKLSCQASGYTFTNYWMHWVRQRPIQGLEWIGNIDPSDSETHYNQKFKDRATLTVDKSSSTAYMQLSSLTSEDSAVYYCARSGVYDDEGGDYWGQGTTLTVSS VL: ENVLTQSPAIMSASPGEKVTMTCSASSSVSYIHWYQQKSSTSPKLWIYDTSKLASGVPGRFSGSGSGNSYSLTISSMETEDVATYYCFQGSGYPLTFGAGTKLELK	0.735	no binding (tested: 300 nM or 600 nM)	no binding	–	–	–
anti-CD300LB antibody CD-01 (antibody, V domains shown) VH: RVQLQQSGAELVRPGASVTLSCKASGFTFTDFEMHWVKKTPVHGLEWIGAIDPESGNTAYNQKFRGKATLTADKSSSTAYMELRYLTSEDSAVYYCTPLISGADYWGQGTTLTVSS VL: DVVMTQSPLSLPVSLGDQASISCRSSQSLVHSDGNTYLYWYLQKPGQSPKLLIYKVSNRFSGVPDRFSGSGSGTDFTFKISRVGAEDLGVYFCSQSTHVPWTFGGGTKLEII	0.175	no binding (tested: 300 nM or 600 nM)	no binding	–	–	–
anti-CD300LB antibody CD-07 (antibody, V domains shown) VH: QVQLVQSGAEVKKPGASVKVSCKASGYTFTNYRMHWVRQAPGQGLEWMGWINPNSGGTIYAQKFQGRVTMTRDTSTSTVYMELSSLRSEDTAVYYCARDLDYWGQGTLVTVSS VL: DIQMTQSPSSLSASVGDRVTITCQASQDISNYLNWYQQKPGKAPKLLIYGASSLQSGVPSRFSGSGSGTDFTLTISSLQPEDFATYYCQQSYSTPWTFGPGTKVEIK	–	–	–	211000 gMFI	3790 gMFI	~20 nM
anti-CD300LB antibody CD-06 (antibody, V domains shown) VH: QVQLVQSGAEVKKPGASVKVSCKASGYTFTTYAVHWVRQAPGQGLEWMGIVNPNSGGTNYAQKFQGRVTMTRDTSTSTVYMELSSLRSEDTAVYYCARDIVPMNNFYNYYYGMDVWGQGTTVTVSS VL: DIQMTQSPSSLSASVGDRVTITCRASQSISSYLNWYQQKPGKAPKLLIYATSTLQSGVPSRFSGSGSGTDFTLTISSLQPEDFATYYCQQSYRIPYTFGQGTKVEIK	–	–	–	169000 gMFI	24000 gMFI	–
anti-CD300LB antibody CD-05 (antibody, V domains shown) VH: QVQLVQSGAEVKKPGASVKVSCKASGYTFSRYYINWVRQAPGQGLEWMGWINPNSGGTNYAQKFQGRVTMTRDTSTSTVYMELSSLRSEDTAVYYCTTDQLRFGKTGPYYGMDVWGQGTTVTVSS VL: DIQMTQSPSSLSASVGDRVTITCRASQNIGTYLNWYQQKPGKAPKLLIYAASSLQSGVPSRFSGSGSGTDFTLTISSLQPEDFATYYCQQSYSDTLTFGGGTKVEIK	0.24	no binding (tested: 300 nM or 600 nM)	–	175000 gMFI	68600 gMFI	–
